The values below come from patent US20090176711A1, “INHIBITORS OF AMYLOID PRECURSOR PROTEIN PROCESSING” (priority 2008, published 2009).

Assay [1] deals with cleavage of Substrate M by β-secretase. Briefly: Inhibition of cleavage of Substrate M by β-secretase by complementary and deletion peptides (Examples 1, 5, 6; assay format not stated). In kind it is biochemical. The note with it: for inhibitory activity of deletion peptides on cleavage of Substrate M: 10 inhibitor/substrate ratio, Substrate M 50 μM; for concentration dependent inhibitory activity, activity group: various concentrations, Substrate M (FIG. 8); for inhibition of cleavage of Substrate M by β-secretase: FIG. 4. As for the experimental part:
So far we have focused on c-Sub M peptide. Serial deletions were made from N-terminus or C-terminus of c-Sub M (FIG. 5), and we investigated effect of the deletions on the cleavage of Substrate M. The optimum peptide/substrate ratio for inhibition on the cleavage of substrate was determined by observing the inhibition percentage at various peptide/substrate ratios (FIG. 4). Subsequently, the inhibitory activity of the deletion peptides were tested at 10 inhibitor/substrate ratio and the concentration of the Substrate M was 50 μM. Deletion of the first two amino acids from the N-terminus had little effect on the activity and deletion of five amino acids from the C-terminus of c-Sub M had little effect on the inhibitory activity (FIG. 6). Further deleted peptides were tested for inhibitory activity on the cleavage of Substrate M (FIG. 7).
The above-mentioned peptides that have inhibitory activity were tested at various concentrations for their inhibitory activities on their mutant substrate Substrate M (FIG. 8).

The subject of assay [2] is Substrate M (Sub M, SEVNLDAEFR; β-secretase cleavage site of APPsw). Briefly: Binding of biotin-labeled Substrate M to immobilized complementary (HC) peptides. The settings on record: for binding activity for Sub M: HC peptides chemically coupled to plate, bio-Sub M. As for the experimental part:
(§1) Complementary peptides (0.2, 2, 20, and 200 μM) were dissolved in phosphate buffered saline (PBS) (pH 7.4) and fixed to microtiter wells for 5 hr at 37° C. The wells were blocked with blocking buffer (3% BSA/PBS) for 1 hr at 37° C. Either N-terminally biotinylated Substrate W or M (20 μM) in blocking buffer was added and incubated for overnight at 4° C. Streptavidin-horseradish peroxidase in blocking buffer was added to detect resulting bound substrates. The plate was incubated for 2 hr at room temperature (RT), followed by addition of 3,3′,5,5′-tetramethyl-benzidine (TMB) as substrate for horseradish peroxidase for color reaction.
(§2) Reacti-Bind™ maleic anhydride-activated polystyrene plate (Pierce, IL, USA) was coated with 50 μl of HC peptide (200 μM in distilled water) by chemical coupling for 3 h at room temperature (RT) and washed three times with phosphate buffered saline (PBS) containing 0.05% tween 20 (PBST). The plate was blocked with blocking buffer (0.5% gelatin in PBS) for 1 h at RT. After discarding blocking buffer, biotinylated BACE1 substrates (200 μM) in blocking buffer was applied on the plate and incubated for 2.5 h at RT. Each well was washed three times with PBST. The bound biotinylated BACE1 substrates were detected by incubation with streptavidin-horseradish peroxidase (Str-HRP, 125 mU/ml in blocking buffer) for 2 h at RT. Color reaction was carried out with 50 μl of 3,3′,5,5′-Tetramethylbenzidine Liquid Substrate (Sigma-Aldrich, MO, USA). After stopping the reaction by addition of an equal volume of 1 N HCl, absorbance at 450 nm was read in an automated ELISA reader (EL 312e, Bio-Tek Instruments, VT, USA). All assays were carried out in duplicate.

Assay [3] deals with T1, Substrate W (Sub W, SEVKMDAEFR; β-secretase cleavage site of wild type APP) (Homo sapiens, UniProt P05067).
T1 construct: […]; purchased Peptron, Inc; host or cells: chemical synthesis
Description: Binding of biotin-labeled Substrate W to immobilized complementary (HC) peptides. The note with it: complementary peptide immobilized, biotin-labeled Substrate W. The procedure:
as §1
In particular, for Substrate W, complementary peptides (200 μM) dissolved in phosphate buffered saline (PBS) (pH 7.4) were chemically coupled to Reacti-Bind Maleic Anhydride Activated Polystyrene wells (Pierce Biotechnology, Inc.) for overnight at room temperature (RT). Remaining active sites of the plate were inactivated by adding ethanolamine (1 M) for 1 hr at RT. The wells were blocked with blocking buffer (3% BSA/PBS) for 1 hr at RT. N-terminally biotinylated Substrate W (20 μM) in blocking buffer was added and incubated for 3 hr at RT. Streptavidin-horseradish peroxidase in blocking buffer was added to detect resulting bound substrates. The plate was incubated for 2 hr at room temperature (RT), followed by addition of 3,3′,5,5′-tetramethyl-benzidine (TMB) as substrate for horseradish peroxidase for color reaction.
as §2

Assay [4] deals with cleavage of F-Substrate M (f-Sub M) by rhBACE1. Description: Fluorometric (FRET) assay for cleavage of F-Substrate M by rhBACE. It counts as biochemical, human. The note with it: for inhibitory activity for cleavage of f-Sub M by rhBACE1: f-Sub M 10 μM. The source says:
This assay system utilizes fluorescence resonance energy transfer (FRET) technology. Substrate M was synthesized with two fluorophores, a fluorescent donor and a proprietary quenching acceptor (purchased from a commercial source, R&D Systems). […] Upon cleavage of substrate by β-secretase, the fluorophore is separated from the quenching group, restoring the full fluorescence yield of donor.
Substrate labeled with fluorophores will be called F-Substrate M (R&D Systems). Recombinant human β-secretase will be called rhBACE (recombinant human β-site APP cleavage enzyme) (purchased from R&D systems).
F-Substrate M (20 μM) was preincubated with varying concentrations of complementary peptides in assay buffer (0.1 M NaOAc, pH 4.0) for 1 hr at RT. rhBACE (70 nM) in assay buffer was added. Cleavage by rhBACE was detected by reading emitted fluorescence level.
In this assay system, fluorescence resonance energy transfer (FRET) technology was utilized. Swedish mutant APP substrate (f-Sub M) with a fluorescent donor and a proprietary quenching acceptor (7-methoxycoumarin-4-acetyl-SEVNLDAEFRK(Dnp)-RR-NH2) was purchased from R&D systems, Inc (MN, USA). […] Upon cleavage of substrate by rhBACE1 (R&D Systems, Inc., MN, USA), the fluorescence donor is separated from the quenching group, restoring the full fluorescence yield of the donor. f-Sub M (10 μM) was pre-incubated with HC peptide in assay buffer (0.1 M NaOAc, pH 4.0) for 2 h at RT. After pre-incubation, substrate and HC peptide mixture in assay buffer was transferred to FluoroNunc™ 96 well white plate (Nunc, Roskilde, Denmark), and rhBACE1 (70 nM) was added. Time-dependent emission of fluorescence (excitation at 320 nm, emission at 405 nm) was monitored in a Molecular Devices SpectraMax Gemini EM fluorescence reader (CA, USA) for 1 h at 37° C. All assays were carried out in duplicate.

Assay [5] has as its target T2, f-Sub M (7-methoxycoumarin-4-acetyl-SEVNLDAEFRK(Dnp)-RR-NH2).
T2 peptide: Mca-SEVNLDAEFRK(Dnp)RR-NH2
Description: cell-based or functional assay.

For assay [6], the target named is T3, Substrate M (non-labeled).
T3 peptide: SEVNLDAEFR
Briefly: cell-based or functional assay.

Assay [7] deals with T4, Sub-ST6Ga11.
T4 peptide: DYEALTLQAKEFQMPKSQE
Briefly: cell-based or functional assay.

The target of assay [8] is T5, N-terminally biotinylated Substrate W.
T5 construct: also called bio-Sub W; Sub W
T5 peptide: Biotin-SEVKMDAEFR
Briefly: plate assay: HC peptide chemically coupled to wells, bio-Sub W, streptavidin-HRP (FIG. 27). The procedure:
as §2
Thereafter, it was investigated if the c-Sub M and the deletions series bind to wild type Sub W. The results will give us important information on possibility of inhibition of wild type of APP cleavage in cells by the HC peptides derived from Sub M in view of the poor cleavage of Sub W by rhBACE1 in vitro. […] Thus, there is possibility that the HC peptides for Sub M (c-Sub M series) or its peptidomimetics will inhibit the cleavage of wild type APP by BACE1 in cells.

“Also recorded” adds a separate entry of the source. Non-standard residues stand in square brackets, D forms with d. No end group written: not given here. *: point of attachment. Biotin = O=C1N[C@H]2[C@H](CS[C@H]2CCCCC(=O)*)N1; Dnp = O=[N+]([O-])c1ccc(*)c([N+](=O)[O-])c1; Mca = COc1ccc2c(CC(=O)*)cc(=O)oc2c1; Ahx = NCCCCCC(=O)O

In the case of CIQI [C-Sub MΔN3C3], in assay [1], the “inhibitory activity of deletion peptides on cleavage of Substrate M” value is recorded as “considerable inhibitory activity” and the “concentration dependent inhibitory activity, activity group” value is reported as “medium activity”.

In the case of SEFCIQIHF [c-Sub M ΔC1], the “binding activity for Sub M” value in assay [2] is recorded as “relatively high binding activity”.

Regarding RLHLDLRLKA [Sub M-c], the “inhibition of cleavage of Substrate M by β-secretase” value (from here on “inhibition … by β-secretase”) in assay [1] was “do not inhibit cleavage”. Moreover, the “binding to Substrate M” value in assay [2] (complementary peptide immobilized, biotin-labeled Substrate M) was “do not bind”.

Turning to RLHFYLRLKA [Sub W-c], the “inhibition … by β-secretase” value in assay [1] is given as “do not inhibit cleavage”. Also, the “binding to Substrate W” value in assay [3] is listed as “do not bind”.

For the molecule “CIQIHF (also: cyclic, mode of cyclisation not given here) [c-Sub M ΔN3C1]”, the “inhibitory activity for cleavage of f-Sub M by rhBACE1” value in assay [4] (N-terminal deletions of c-Sub M ΔC1, HC peptide 0.5 mM) is recorded as “maintains much of the original activity of c-Sub M; also recorded: without sacrificing the inhibitory activity too much”. Also, the “inhibitory activity relative to c-Sub M ΔN1C1” value in assay [4] (substrate concentration 10 μM) is “about one tenth”. In assay [1], the “inhibitory activity of deletion peptides on cleavage of Substrate M” value was “considerable inhibitory activity” and the “concentration dependent inhibitory activity, activity group” value is “less activity”.

For the molecule “SEFCI (also: cyclic, mode of cyclisation not given here) [c-SubM ΔC5]”, the “concentration dependent inhibitory activity, activity group” value in assay [1] is reported as “medium activity”.

Turning to “SEFCIQI (also: cyclic, mode of cyclisation not given here) [c-SubM ΔC3]”, the “concentration dependent inhibitory activity, activity group” value in assay [1] is recorded as “most active group”.

Turning to “SEFCIHLHFR (also: cyclic, mode of cyclisation not given here) [c-Sub W]”, the “inhibitory activity for cleavage of f-Sub M by rhBACE1” value in assay [4] (HC peptide 1 mM) is reported as “higher inhibitory activity”. In assay [1], the “inhibition … by β-secretase” value is on record as “inhibit cleavage” and the “concentration dependent inhibitory activity, activity group” value is listed as “medium activity”. In addition, the “binding activity for Sub M” value in assay [2] was “weak but significant binding”. Besides, in assay [3], the “binding to Substrate W” value is given as “bind”.

B1: 6-aminohexanoic acid-c-Sub M ΔN3C1 (peptide)
peptide: [Ahx]CIQIHF-NH2
modifications: N-terminus assumed
SMILES: CC[C@H](C)[C@H](NC(=O)[C@H](CCC(N)=O)NC(=O)[C@@H](NC(=O)[C@H](CS)NC(=O)CCCCCN)[C@@H](C)CC)C(=O)N[C@@H](Cc1c[nH]cn1)C(=O)N[C@@H](Cc1ccccc1)C(N)=O
As for B1, the “in vitro inhibitory activity on cleavage of f-Sub M by rhBACE1 relative to c-Sub M ΔN3C1 (FRET)” value in assay [5] was ~0.5 fold of c-Sub M ΔN3C1.

For the molecule FCIQIHF-NH2 (also called FCIQIHF) [c-Sub M ΔN2C1], the “percent of Sub M cleavage by β-secretase blocked (HPLC), 25-fold inhibitor” value in assay [6] was around 60%. The “percent of ST6Ga11 peptide cleavage by β-secretase blocked (HPLC), 25-fold inhibitor” value in assay [7] worked out at 25%. In addition, the binding result in assay [8] is on record as “binds”.

In the case of SEFCIQI-NH2 [c-Sub M ΔC3], the “inhibitory activity for the cleavage of f-Sub M by rhBACE1 (FRET; HC peptide 1 mM, f-Sub M 10 µM)” value (from here on “inhibitory activity for the cleavage”) in assay [5] was above 90%.

Turning to SEFCI-NH2 [c-Sub M ΔC5], in assay [5], the “inhibitory activity for the cleavage” value was above 90%.

As to SEFCIQ-NH2 [c-Sub M ΔC4], the “inhibitory activity for the cleavage” value in assay [5] was above 90%.

B2: c-Sub M ΔN1C1 (peptide)
peptide: EFCIQIHF-NH2
notes: also called one amino acid deletion from N-terminal of c-Sub M ΔC1
B2: in assay [6], the “inhibition of the cleavage of Sub M by rhBACE1 (HPLC), inhibitor/substrate ratio 20” value was 100% and the “inhibition of the cleavage of Sub M by rhBACE1 (HPLC), up to 10 inhibitor/substrate ratio” value was determined as 60%. In addition, in assay [7], the “inhibition of the cleavage of Sub-ST6Ga11 by rhBACE1 (HPLC), inhibitor/substrate ratio 20” value is 40% and the “inhibition of the cleavage of Sub-ST6Ga11 by rhBACE1 (HPLC), up to 10 inhibitor/substrate ratio” value is around 10%. Further, the “IC50 of inhibition of f-Sub M (10 µM) cleavage by rhBACE1 (FRET)” value in assay [5] came to 15 µM. Also, the “fold binding to Sub W relative to c-Sub W” value in assay [8] was found to be 2.5 fold.

Turning to CIQIHF-NH2 (also called c-Sub M ΔC1N3; c-Sub ΔN3C1) [c-Sub M ΔN3C1], the “inhibitory activity relative to c-Sub M ΔN1C1, f-Sub M (10 µM) cleavage by rhBACE1 (FRET)” value in assay [5] is ~0.1 fold of c-Sub M ΔN1C1. The binding result in assay [8] was “binds”.

Consider SEFCIQIH-NH2 [c-Sub M ΔC2], for which the “inhibitory activity for the cleavage” value in assay [5] amounted to 44%.
